Measurements: patent publication US20190077858A1 (KM BIOLOGICS, published 2019)

How the values were obtained:
[1] = target: T1, human IL-18 (MBL Medical & Biological Laboratories, Co., Ltd.) (human, UniProt Q14116 37-193, biotinylated (Biotin-PEAC5-maleimide or Biotin-AC5 Sulfo-OSu) in the streptavidin plate ELISAs and the panning; not labelled in the receptor binding and KG-1 assays); test: ELISA, biotinylated human IL-18 on streptavidin plate, HRP detection antibody, O.D. 450nm/650nm
T1 construct: Bought protein; also called human interleukin-18; biotinylated human IL-18
T1 sequence (looked up): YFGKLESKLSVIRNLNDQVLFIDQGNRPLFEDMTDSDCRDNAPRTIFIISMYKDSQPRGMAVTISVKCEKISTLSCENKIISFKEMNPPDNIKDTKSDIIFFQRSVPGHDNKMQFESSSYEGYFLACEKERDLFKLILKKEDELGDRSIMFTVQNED
Protocol: The binding activity of the obtained scFv phages, scFv, and IgG prepared by a standard method (conventional method) was evaluated by ELISA. The biotinylated human IL-18 or the biotinylated mouse IL-18 was diluted to 1 μg/mL with PBS (Sigma-Aldrich Corp.), added at 100 μL/well to Streptavidin plates (Nunc), and incubated at room temperature for 2 hours to immobilize the IL-18. After the immobilization, the plates were washed with PBST, and each obtained scFv phage, scFv, or IgG was added at 100 μL/well to the plates and incubated at 37° C. After 1 hour, the plates were washed with PBST, and a detection antibody anti-M13/HRP (GE Healthcare Japan Corp.), anti-His tag/HRP (Bethyl Laboratories, Inc.), anti-V5 tag/HRP (Bethyl Laboratories, Inc.), anti-mouse IgG/HRP (Invitrogen Corp.), or anti-hFc/HRP (Cosmo Bio Co., Ltd., The binding site) was added at 100 μL/well to the plates and incubated at 37° C. After 1 hour, the plates were washed with PBST, and TMB (Sigma-Aldrich Corp.) was added at 100 μL/well to the plates to develop color. After 30 minutes, the reaction was terminated with 2 N sulfuric acid, and the color values (O.D. 450 nm/650 nm) were measured using a microplate reader (Molecular Devices, Inc.).

[2] = target: T1, human IL-18 (MBL Medical & Biological …); test: flow cytometry, blocking: human IL-18 100 ng/mL pre-mixed with the antibody, added to KG-1 cells, bound IL-18 detected with biotinylated 125-2H and streptavidin-PE; blocked partner: native IL-18 receptor [b]
Protocol: Human IL-18 (MBL Medical & Biological Laboratories, Co., Ltd.) was diluted to 100 ng/mL with 1% BSA-PBS-0.05% NaN₃-2% rabbit serum, mixed with the obtained anti-IL-18 antibody, and incubated at room temperature for 60 minutes. Then, the human IL-18/anti-IL-18 antibody mixed solution was added to KG-1 cells (1×10⁵ cells) cultured by a standard technique (e.g., a medium in which an RPMI1640 medium was supplemented with 10% bovine serum, 2 mM L-glutamine, 50 U/mL penicillin, and 50 μg/mL streptomycin), and reacted on ice. After 30 minutes, the supernatant was removed by centrifugation (1200 rpm, 3 min, 4° C.), and a biotinylated anti-IL-18 antibody 125-2H (MBL Medical & Biological Laboratories, Co., Ltd.) not inhibiting the binding between IL-18 and IL-18 receptor was added thereto and reacted on ice. After 30 minutes, the supernatant was removed by centrifugation (1200 rpm, 3 min, 4° C.), and streptavidin-PE (BD Becton, Dickinson and Company) was added thereto and reacted on ice for 30 minutes. After the reaction, the supernatant was removed by centrifugation (1200 rpm, 3 min, 4° C.), and the KG-1 cells were floated with 1% BSA-PBS-0.05% NaN₃-2% rabbit serum. The fluorescence intensity in the reacted KG-1 cells was measured using FACScan (BD Becton, Dickinson and Company).

B1: IgG molecule-type 4A6D (antibody, V domains shown)
VH: EVQLVESGGGLVQPGGSMRLSCTASGFTFDEYAMSWVRQAPGKGLEWVSGISTGGGGTYYADSVEGRFTISRDNSKNTLYLQMNSLRAEDTAVYYCAKPWLSGSRSGDFWGQGTLVTVSS
VL: QSALTQPASVSGSPGQSITISCTGTSSDVGGYNYVSWYQQHPGKAPKLLIYEVSHRPSGVSDRFSGSKSGNTASLTISGLQAEDEADYYCSSFTSSSSLYVFGTGTKLTVL
notes: detected with anti-hFc, so human constant regions; also called human anti-human IL-18 antibody 4A6D
With B1 the “EC50 (read off the curve)” value [1] was ~0.02 µg/mL and the “IC50 (read off the curve)” value [2] was ~0.2 µg/mL.
